Assay in all cases: cell_activity
In series [1] the test system is ZFN 46786 (synthetic). Particulars: pair with 46880.
Series [2] concerns ZFN 46801 (synthetic). Particulars: pair with 46880.
Series [3] deals with ZFN 46934 (synthetic). Conditions: pair with 47923.
The test system of series [4] is ZFN 46816 (synthetic). Conditions: pair with 47923.
In series [5] the test system is ZFN 45843 (synthetic). Conditions: pair with 45844, CD34+ cells.
Series [6] deals with ZFN 46189 (synthetic). Conditions: pair with 46188, K562.
Series [7] relates to ZFN 46228 (synthetic). Particulars: pair with 46226, K562.
Series [8] relates to ZFN 46880 (synthetic). Particulars: pair with 46801.
For series [9], the system named is ZFN 47923 (synthetic). Conditions: pair with 46801.
Series [10] concerns ZFN 46216 (synthetic). Particulars: pair with 46217, K562.
Series [11] deals with ZFN 46247 (synthetic). Particulars: pair with 46246, K562.
The test system of series [12] is ZFN 46229 (synthetic). Particulars: pair with 46230, K562.
Series [13] deals with ZFN 46188 (synthetic). Conditions: pair with 46189, K562.
The subject of series [14] is ZFN 46240 (synthetic). Particulars: pair with 46241, K562.
Series [15] deals with ZFN 46164 (synthetic). Conditions: pair with 46163, K562.
For series [16], the system named is ZFN 46181 (synthetic). Conditions: pair with 46180, K562.
The test system of series [17] is ZFN 46209 (synthetic). Particulars: pair with 46208, K562.
Series [18] has as its system ZFN 46208 (synthetic). Particulars: pair with 46209, K562.
Series [19] concerns ZFN 46226 (synthetic). Conditions: pair with 46228, K562.
Series [20] deals with ZFN 46217 (synthetic). Conditions: pair with 46216, K562.
The subject of series [21] is ZFN 46246 (synthetic). Particulars: pair with 46247, K562.
In series [22] the test system is ZFN 46163 (synthetic). Particulars: pair with 46164, K562.
Series [23] relates to ZFN 45844 (synthetic). Conditions: pair with 45843, CD34+ cells.
In series [24] the test system is ZFN 47021 (synthetic). Conditions: pair with 45843.
Series [25] deals with ZFN 46180 (synthetic). Conditions: pair with 46181, K562.
Series [26] relates to ZFN 46241 (synthetic). Conditions: pair with 46240, K562.
Series [27] deals with ZFN 46230 (synthetic). Conditions: pair with 46229, K562.
Series [28] concerns ZFN 46158 (synthetic). Particulars: pair with 46156, K562, Cel-I.
The subject of series [29] is ZFN 46156 (synthetic). Conditions: pair with 46158, K562.

For the sequence “AAAGCAACTGTTAGCTTGCACTAGACTA (double strand) [45848/46801 target]”, the activity is 71 % NHEJ (D0) in series [1], 87 % NHEJ (D0) in [2], 80 % NHEJ (D0) in series [3] and 29.9 % indels in series [4].
As to “AAGCAACTGTTAGCTTGCACTAGACTAG (double strand) [45843 target]”, the activity in [5] is 78 % NHEJ (D0).
As for “ACACCCTGTGATCTTGTGGGACCCCTCT (double strand) [46189 target]”, the activity in [6] stood at 12.8 % NHEJ.
As to “ATAGGGGTCGCGGTAGGGAGTTGTCGGC (double strand) [46228 target]”, in series [7], the activity amounted to 37.8 % NHEJ.
As for “CACAGGCTCCAGGAAGGGTTTGGCCTCT (double strand) [45849/46880 target]”, the activity in series [8] was 87 % NHEJ (D0); in series [9] it was 82 % NHEJ (D0).
Turning to “CAGGCTGGGCTGGACAGAGGGGTCCCAC (double strand) [46216 target]”, the activity in series [10] was found to be 16.6 % NHEJ.
“CCGTCTACATAGAGGCCCTTCCTGCTTG (double strand) [46247 target]” displayed an activity in series [11] of 17.3 % NHEJ.
“CCTATCAGTGCCGACCAAGCACACAAGA (double strand) [46229 target]” gave an activity in series [12] of 37.2 % NHEJ.
Turning to “CCTGAGAAGGTGGGGAGCTCACAGCCTC (double strand) [46188 target]”, the activity in series [13] was found to be 12.8 % NHEJ.
“CTCACAGGACATGCAGCAGTGTGTGCCG (double strand) [46240 target]” showed an activity in series [14] of 25 % NHEJ.
In the case of “GAAGGGAAGTGGGTATGGGGCAGCCCAT (double strand) [46164 target]”, the activity in series [15] was 21.9 % NHEJ.
In the case of “GCAATGCTTGGAGGCTGTGAGCTCCCCA (double strand) [46181 target]”, the activity in series [16] came out at 15.2 % NHEJ.
“GCCTGGGTGTGCATCTTGTGTGCTTGGT (double strand) [46209 target]” returned an activity in series [17] of 28 % NHEJ.
Take “GGGCTGGACAGAGGGGTCCCACAAGATC (double strand) [46208 target]”: the activity in [18] stood at 28 % NHEJ.
In [19], “GTGCCGACCAAGCACACAAGATGCACAC (double strand) [46226 target]” came in with an activity of 37.8 % NHEJ.
In series [20], “GTGTGCATCTTGTGTGCTTGGTCGGCAC (double strand) [46217 target]” had an activity of 16.6 % NHEJ.
As for “GTGTGGCTCCTTAAGGTGACCCAGCAGC (double strand) [46246 target]”, in series [21], the activity worked out at 17.3 % NHEJ.
Turning to “TAGAATTGGCCTGGGACATTCATTATTT (double strand) [46163 target]”, the activity in series [22] is 21.9 % NHEJ.
Turning to “TCACAGGCTCCAGGAAGGGTTTGGCCTC (double strand) [45844 target]”, the figures for the activity in series [23] and in series [24] were 78 % NHEJ (D0) and 82 % NHEJ (D0), respectively.
Sequence “TCATCCTGGTACCAGGAAGGCAATGGGC (double strand) [46180 target]” gave an activity in series [25] of 15.2 % NHEJ.
As to “TCCCCAAGGCTGTGCCCAGCCTTCAGTG (double strand) [46241 target]”, the activity in series [26] worked out at 25 % NHEJ.
Regarding “TCGCGGTAGGGAGTTGTCGGCACACACT (double strand) [46230 target]”, the activity in series [27] was determined as 37.2 % NHEJ.
As for “TCTAGGAAGGGAAGTGGGTATGGGGCAG (double strand) [46158 target]”, the activity in series [28] was 30.4 % NHEJ.
Consider “TGGCCTGGGACATTCATTATTTAGCCAC (double strand) [46156 target]”, for which, in [29], the activity is 30.4 % NHEJ.

Values taken from US20150132269.
